Results published in PMC7563123 (Biomolecules, 2020).

Tests used:
Details in all cases: both partners purified
[1] = molecular target: T1, amyloid beta peptide 1-42 (Aβ1–42) (human, UniProt P05067 672-713); assay: SPR; oligomeric Aβ1–42 (Preparation A, dilution of the stock), 1.1-0.055 μM, flowed over cypD or 17β-HSD10 captured by immobilised antibody; running buffer RB1 (10 mM HEPES pH 7.4, BSA 200 μg/mL, 5 mM Na+, 140 mM K+, 1 mM Mg2+); 25 °C, 20 µL/min; global fit, 1:1 Langmuir model
T1 construct: amyloid beta peptide of 42 amino acids, human, produced from amyloid precursor protein; numbers count on: the Aβ peptide; One peptide used in two states; Preparation B (NaOH) is called monomeric, though it might hold monomers and low oligomers; Preparation A (plain dilution of the stock) is called oligomeric, and the size of the oligomers is not determined; The states are told apart by the …

[2] = molecular target: T2, amyloid beta peptide 1-40 (Aβ1–40) (human, UniProt P05067 672-711); assay: SPR; monomeric Aβ (Aβ1–40 by Preparation C, HFIP; Aβ1–42 by Preparation B, NaOH), five concentrations, flowed over cypD or 17β-HSD10 captured by immobilised antibody; running buffer RB1 (10 mM HEPES pH 7.4, BSA 200 μg/mL, 5 mM Na+, 140 mM K+, 1 mM Mg2+); 25 °C, 20 µL/min; global fit, 1:1 Langmuir model
T2 construct: amyloid beta peptide of 40 amino acids, human, produced from amyloid precursor protein; numbers count on: the Aβ peptide; Stock dissolved in 1% NH4OH and diluted by PBS to 100 μM; Preparation C (HFIP) is called monomeric, though it might hold monomers and low oligomers; also called monomeric Aβ_(1–40); source: synthetic peptide, bought: AnaSpec

[3] = molecular target: T1, amyloid beta peptide 1-42 (Aβ1–42); assay: as above

B1: cyclophilin D (cypD), human recombinant (enzyme)
chain: not shown
notes: cyclophilin D, human recombinant, NCBI Gene ID 10105; Commercial protein; It was held on the chip by an immobilised anti-cypD antibody; source: bought: Fitzgerald
Kd [1]: 5.3 ± 1.2 nM | koff [1]: 6.1e-05 s⁻¹ | kon [1]: 11100 M⁻¹ s⁻¹ | Kd [2]: 160 ± 57.8 nM | koff [2]: 0.000174 s⁻¹ | kon [2]: 1170 M⁻¹ s⁻¹ | Kd [3]: 56.5 ± 5.4 nM | koff [3]: 0.000139 s⁻¹ | kon [3]: 2690 M⁻¹ s⁻¹
